The target of one assay is HLA-A*02:06. Nature of the assay: IEDB peptide-MHC binding, purified MHC/competitive/fluorescence; filed as Kd, often an IC50 or EC50 that approximates it; ≥ and ≤ were set here for values at or beyond the usual limits of such assays. Conditions: source organism: Bacillus anthracis str. A0389.
Assay [1] addresses HLA-B*15:09. The assay is described as above. Conditions: source organism: Bacillus anthracis str. A0389.
Assay [2] has as its target HLA-A*26:01. The assay is described as above.
A further assay has as its target HLA-B*15:01. The description is as above.
Assay [3] has as its target HLA-B*46:01. Description: IEDB peptide-MHC binding, purified MHC/direct/fluorescence; filed as Kd, often an IC50 or EC50 that approximates it; ≥ and ≤ were set here for values at or beyond the usual limits of such assays.
Another assay addresses HLA-A*03:01. Described as above. Conditions: source organism: Bacillus anthracis.
In assay [4] the target is HLA-B*15:17. The assay is described as above. Conditions: source organism: Bacillus anthracis.
For assay [5], the target named is HLA-B*57:01. Described as above.
Another assay addresses HLA-B*58:01. The assay is described as above.
The target in assay [6] is HLA-B*27:05. The description is as above. Conditions: source organism: Bacillus anthracis.
In another assay the target is HLA-C*05:01. The description is as above. Conditions: source organism: Bacillus anthracis str. A0389.
Another assay addresses HLA-B*48:01. Described as above. Conditions: source organism: Bacillus anthracis.
Another assay has as its target HLA-B*08:02. The description is as above.
Another assay has as its target HLA-A*31:01. Described as above. Conditions: source organism: Bacillus anthracis.
The target in another assay is HLA-A*11:01. The assay is described as above. Conditions: source organism: Bacillus anthracis.
The target of the next assay is HLA-A*01:01. Described as above.
Assay [7] has as its target HLA-B*39:01. The description is as above.
The next assay addresses HLA-B*40:01. The assay is described as above.
In assay [8] the target is HLA-B*15:17. Description: IEDB peptide-MHC binding, purified MHC/competitive/fluorescence; filed as Kd, often an IC50 or EC50 that approximates it; ≥ and ≤ were set here for values at or beyond the usual limits of such assays.
Assay [9] deals with HLA-B*27:05. The description is as above. Conditions: source organism: Vaccinia virus Copenhagen.
Assay [10] addresses HLA-B*35:01. Described as above. Conditions: source organism: Vaccinia virus Copenhagen.
Assay [11] has as its target HLA-B*07:02. The description is as above. Conditions: source organism: Vaccinia virus Copenhagen.
The next assay has as its target HLA-B*18:01. Described as above.
A further assay has as its target HLA-A*02:01. Description: IEDB peptide-MHC binding, purified MHC/direct/fluorescence; filed as Kd, often an IC50 or EC50 that approximates it; ≥ and ≤ were set here for values at or beyond the usual limits of such assays.
A further assay addresses HLA-A*26:02. Described as above. Conditions: source organism: Variola virus.
In assay [12] the target is HLA-B*15:09. Described as above. Conditions: source organism: Variola virus.
In a further assay the target is HLA-B*08:01. Described as above. Conditions: source organism: Variola virus.
For a further assay, the target named is HLA-A*68:02. The assay is described as above. Conditions: source organism: Cowpox virus.
In assay [13] the target is HLA-A*26:01. Described as above. Conditions: source organism: Variola virus.
A further assay has as its target HLA-A*69:01. The description is as above. Conditions: source organism: Cowpox virus.
The next assay addresses HLA-B*40:02. Description: IEDB peptide-MHC binding, cellular MHC/competitive/fluorescence; ≥ and ≤ were set here for values at or beyond the usual limits of such assays. Conditions: source organism: Homo sapiens.
Assay [14] addresses HLA-B*07:02. Nature of the assay: IEDB peptide-MHC binding, purified MHC/competitive/radioactivity; ≥ and ≤ were set here for values at or beyond the usual limits of such assays. Conditions: source organism: dengue virus type 1.
The target in assay [15] is HLA-B*35:01. Nature of the assay: IEDB peptide-MHC binding, purified MHC/competitive/radioactivity; filed as Kd, often an IC50 or EC50 that approximates it; ≥ and ≤ were set here for values at or beyond the usual limits of such assays. Conditions: source organism: Dengue virus 1 Brazil/97-11/1997.
Assay [16] addresses HLA-B*46:01. Nature of the assay: IEDB peptide-MHC binding, purified MHC/competitive/fluorescence; filed as Kd, often an IC50 or EC50 that approximates it; ≥ and ≤ were set here for values at or beyond the usual limits of such assays. Conditions: source organism: Zaire ebolavirus.
The target of a further assay is HLA-C*06:02. Described as above. Conditions: source organism: Zaire ebolavirus.
Assay [17] addresses HLA-B*57:01. The description is as above. Conditions: source organism: Zaire ebolavirus.
A further assay deals with HLA-B*45:06. The assay is described as above. Conditions: source organism: Zaire ebolavirus.
The target of a further assay is HLA-B*83:01. The description is as above. Conditions: source organism: Zaire ebolavirus.
For another assay, the target named is HLA-B*27:03. The description is as above. Conditions: source organism: Zaire ebolavirus.
Assay [18] addresses HLA-B*39:01. Described as above. Conditions: source organism: Zaire ebolavirus.
A further assay addresses HLA-B*15:42. The description is as above. Conditions: source organism: Zaire ebolavirus.
The target in the next assay is HLA-A*03:19. The description is as above. Conditions: source organism: Zaire ebolavirus.
The target in a further assay is HLA-A*24:03. Description: IEDB peptide-MHC binding, purified MHC/direct/fluorescence; filed as Kd, often an IC50 or EC50 that approximates it; ≥ and ≤ were set here for values at or beyond the usual limits of such assays. Conditions: source organism: Zaire ebolavirus.
Where [19] appears, read: source organism: Bacillus anthracis str. A0389.
Where [20] appears, read: source organism: Bacillus anthracis.
Where [21] appears, read: source organism: Bacillus anthracis str. A0193.
[22] abbreviates: source organism: Vaccinia virus Copenhagen.
The mark [23] stands for this setting: source organism: Zaire ebolavirus.

Some results are limits rather than exact numbers.

Regarding FTDNNELEF, the Kd with HLA-A*02:06 is 0.0002 µM; with HLA-B*15:09 [1] it was at least 20 µM; with HLA-A*26:01 [2] (setting [19]) it was at least 20 µM; with HLA-B*15:01 (setting [19]), at least 20 µM; with HLA-B*46:01 [3] (setting [20]) it was at least 20 µM; with HLA-A*03:01 it was at least 20 µM. The Kd with HLA-B*15:17 [4] is 0.003 µM; with HLA-B*57:01 [5] (setting [20]), at least 20 µM; in the assay with HLA-B*58:01 (setting [20]), 0.212 µM; in the assay with HLA-B*27:05 [6], at least 20 µM; with HLA-C*05:01 it was at most 0.001 µM; with HLA-B*48:01, at least 20 µM. For the same sequence, the Kd in the assay with HLA-B*08:02 (setting [21]) was at least 20 µM; with HLA-A*31:01, at least 20 µM; with HLA-A*11:01, at least 20 µM; with HLA-A*01:01 (setting [20]), 0.002 µM; in the assay with HLA-B*39:01 [7] (setting [21]), at least 20 µM; with HLA-B*40:01 (setting [20]) it was at least 20 µM.

Consider YHRFGLYRL, for which the dissociation constant Kd with HLA-B*15:17 [8] (setting [22]) was at least 20 µM; in the assay with HLA-B*27:05 [9], at least 20 µM; with HLA-B*35:01 [10] it was 2.7 µM; with HLA-B*15:01 (setting [22]) it was at least 20 µM; in the assay with HLA-B*07:02 [11], at least 20 µM; with HLA-B*18:01 (setting [22]), 2.66 µM. The Kd with HLA-A*02:01 (source organism: Cowpox virus) was at least 20 µM; with HLA-B*46:01 [3] (source organism: Cowpox virus) it was at least 20 µM; in the assay with HLA-A*26:02 it was at least 20 µM; with HLA-B*57:01 [5] (source organism: Cowpox virus), at least 20 µM; with HLA-B*15:09 [12], 2.43 µM; with HLA-B*08:01 it was at least 20 µM. Moreover, the equilibrium dissociation constant (Kd) in the assay with HLA-A*68:02, with HLA-B*58:01 (source organism: Cowpox virus), with HLA-A*26:01 [13], in the assay with HLA-A*69:01, with HLA-B*08:02 (source organism: Variola virus) and in the assay with HLA-A*01:01 (source organism: Cowpox virus) was at least 20 µM throughout. The Kd in the assay with HLA-B*39:01 [7] (source organism: Cowpox virus) is 5.05 µM; with HLA-B*40:01 (source organism: Cowpox virus), at least 20 µM.

For the sequence REGSFRVTT, the IC50 with HLA-B*40:02 is 1.9 µM.

For HPASAWTLYA, the IC50 in the assay with HLA-B*07:02 [14] turned out to be 0.00615 µM. In addition, the Kd with HLA-B*35:01 [15] is 0.572 µM.

Regarding VLYHRYNLV, the Kd with HLA-B*46:01 [16] is at least 20 µM; with HLA-B*15:17 [8] (setting [23]), at least 20 µM; in the assay with HLA-C*06:02, 0.804 µM; in the assay with HLA-B*57:01 [17], at least 20 µM; with HLA-B*45:06, at least 5 µM; with HLA-B*83:01, at least 5 µM. Moreover, the Kd in the assay with HLA-A*26:01 [2] (setting [23]) was at least 20 µM; with HLA-B*15:01 (setting [23]) it was at least 20 µM; with HLA-B*27:03 it was at least 20 µM; with HLA-B*39:01 [18], at least 20 µM; with HLA-B*15:42, at least 5 µM; in the assay with HLA-A*03:19 it was 0.0044 µM. Also, the dissociation constant Kd is at least 20 µM in the assay with HLA-B*18:01 (setting [23]), 0.0181 µM in the assay with HLA-A*02:01 (source organism: Sudan ebolavirus - Maleo (1979)) and at least 20 µM with HLA-A*24:03.

(Values after the Immune Epitope Database (IEDB).)
